Assay results taken from patent US20100104550A1 (priority 2006, published 2010).
Entries after “also recorded” stand apart in the source; their conditions may differ.

Tests used:
GRP78/BiP = GRP78/BiP (Homo sapiens, UniProt P11021); type: cell-based
MDA231luc cells [1] = type: cell-based, human
MDA231luc-Dox cells = type: cell-based, human
caspase-3/7 = type: cell-based, human
EGFR = EGFR (Homo sapiens, UniProt P00533); type: cell-based, rat
α-fodrin = type: cell-based, human
MDA231luc cells [2] = type: cell-based, human; remark: listed apart in the source
F98/EGFR-Dox cells = type: cell-based, rat

GRP78/BiP, sequence (P11021 19-654): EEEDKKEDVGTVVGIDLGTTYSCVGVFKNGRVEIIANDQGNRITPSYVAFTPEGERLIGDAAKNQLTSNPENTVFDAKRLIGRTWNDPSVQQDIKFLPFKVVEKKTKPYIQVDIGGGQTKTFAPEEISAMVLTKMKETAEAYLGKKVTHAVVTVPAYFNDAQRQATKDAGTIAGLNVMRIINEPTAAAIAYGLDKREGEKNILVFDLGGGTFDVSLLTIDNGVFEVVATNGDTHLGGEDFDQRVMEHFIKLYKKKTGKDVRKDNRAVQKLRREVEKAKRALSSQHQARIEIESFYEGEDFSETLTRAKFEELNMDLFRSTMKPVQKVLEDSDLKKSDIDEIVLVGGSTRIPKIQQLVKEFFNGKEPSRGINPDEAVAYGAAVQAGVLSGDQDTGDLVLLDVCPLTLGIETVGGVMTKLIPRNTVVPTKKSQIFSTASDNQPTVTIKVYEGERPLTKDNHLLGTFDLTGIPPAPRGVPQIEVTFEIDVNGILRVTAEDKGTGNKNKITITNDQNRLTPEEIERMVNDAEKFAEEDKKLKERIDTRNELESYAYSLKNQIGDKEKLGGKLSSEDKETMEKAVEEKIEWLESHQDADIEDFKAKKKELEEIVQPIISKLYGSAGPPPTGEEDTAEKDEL

B1: EGF-SubA: fusion protein (SEQ ID NO:13): Cys-tag, linker, human EGF, linker, 326 amino acid SubA fragment (protein)
chain: MKESCAKKFQRQHMDSGGGGSGGGGSGGGGSMGNSDSECPLSHDGYCLHDGVCMYIEALDKYACNCVVGYIGERCQYRDLKWWELRSMADIGSEKPWYFDAIGLTETTMSLTDKNTPVVVSVVDSGVAFIGGLSDSEFAKFSFTQDGSPFPVKKSEALYIHGTAMASLIASRYGIYGVYPHALISSRRVIPDGVQDSWIRAIESIMSNVFLAPGEEKIINISGGQKGVASASVWTELLSRMGRNNDRLIVAAVGNDGADIRKLSAQQRIWPAAYHPVSSVNKKQDPVIRVAALAQYRKGETPVLHGGGITGSRFGNNWVDIAAPGQNITFLRPDAKTGTGSGTSEATAIVSGVLAAMTSCNPRATATELKRTLLESADKYPSLVDKVTEGRVLNAEKAISMFCKKNYIPVRQGRMSEEL
modifications: fusion protein of subA and human EGF with cys tag consisting of SEQ ID NOS 7 to 12
B1 was tested, and the “cleavage of BiP in combination treatment” value (GRP78/BiP) was “effective cleavage of BiP”, the “cleavage of intracellular GRP78/BiP” value (GRP78/BiP) was “appearance of a 28-kDa fragment; also recorded: selectively cleaves intracellular BiP” and the “effect on bortezomib-induced cell growth inhibition” value (MDA231luc cells [1]) was “enhances cell growth inhibition”. For the same molecule, the “effect on thapsigargin-induced cell growth inhibition” value (MDA231luc cells [1]) was “enhances cell growth inhibition”, the “sensitivity of MDA231luc-Dox cells relative to parental MDA231luc” value (MDA231luc-Dox cells) was “Enhanced sensitivity; also recorded: significantly more sensitive” and the IC50 (parental F98 cells) was roughly 2.5 nM. For the same molecule, the “total DEVD- and specific caspase-3/7 activity” value (caspase-3/7) was “significant increase”, the EGFR tyrosine autophosphorylation (EGFR) was “induced EGFR tyrosine autophosphorylation in the same concentration range” and the “accumulation of 150-kDa and 120-kDa fragments of α-fodrin” value (α-fodrin) was “Greater accumulation”. For the same molecule, the “effect of excess EGF on EGF-SubA toxicity” value (MDA231luc cells [2]) was “inhibited by excess of EGF; also recorded: excess of free EGF rescue cells”, the “fold lower sensitivity of MDA-231luc cells vs F98/EGFR cells” value (MDA231luc cells [2]) was 10 fold and the “sensitivity of F98/EGFR-Dox cells relative to parental F98/EGFR” value (F98/EGFR-Dox cells) was “Enhanced sensitivity; also recorded: significantly more sensitive”.
